By IC50 is commonly meant the concentration at which inhibition is half-maximal. Read a high IC50 as weaker potency. For orientation: Kd means the equilibrium constant for the complex coming apart.

The values below come from the Immune Epitope Database (IEDB).

For test [1], the target named is HLA-A*02:01. Briefly: IEDB peptide-MHC binding, purified MHC/competitive/fluorescence; ≥ and ≤ were set here for values at or beyond the usual limits of such assays.
In another test the target is HLA-B*08:01. Described as above.
For test [2], the target named is HLA-B*15:01. The test is described as above.
For test [3], the target named is HLA-B*07:02. Described as above. To be noted: source organism: Zaire ebolavirus.
For another test, the target named is HLA-A*24:02. Described as above.
Test [4] concerns the target HLA-A*69:01. The test can be described thus: IEDB peptide-MHC binding, purified MHC/competitive/fluorescence; filed as Kd, often an IC50 or EC50 that approximates it; ≥ and ≤ were set here for values at or beyond the usual limits of such assays. To be noted: source organism: Zaire ebolavirus.
The target in test [5] is HLA-B*57:01. The test is described as above. The following applies: source organism: Zaire ebolavirus.
For the next test, the target named is HLA-B*27:03. Described as above.
A further test addresses HLA-A*26:01. The description is as above.
Test [6] addresses HLA-B*51:01. The test is described as above.
For a further test, the target named is HLA-B*27:05. Briefly: IEDB peptide-MHC binding, purified MHC/direct/fluorescence; filed as Kd, often an IC50 or EC50 that approximates it; ≥ and ≤ were set here for values at or beyond the usual limits of such assays.
A further test addresses HLA-B*58:01. Described as above.
A further test concerns the target HLA-A*02:19. The description is as above. To be noted: source organism: Zaire ebolavirus.
Test [7] deals with HLA-B*15:01. Described as above.
The target of test [8] is HLA-A*03:01. The test is described as above.
The next test has as its target HLA-A*29:02. The test is described as above.
The target of another test is HLA-A*68:02. Described as above.
Test [9] deals with HLA-A*02:01. Described as above. To be noted: source organism: Reston ebolavirus - Reston.
Another test deals with HLA-B*18:01. The description is as above. The following applies: source organism: Reston ebolavirus - Reston.
Another test has as its target HLA-B*46:01. The description is as above. To be noted: source organism: Reston ebolavirus - Reston.
The next test addresses HLA-B*39:01. The description is as above. The following applies: source organism: Reston ebolavirus - Reston.
In another test the target is HLA-A*02:11. The test is described as above. To be noted: source organism: Reston ebolavirus.
A further test concerns the target HLA-A*31:01. Described as above. To be noted: source organism: Reston ebolavirus - Reston.
In test [10] the target is HLA-A*69:01. Described as above. To be noted: source organism: Reston ebolavirus - Reston.
For another test, the target named is HLA-B*40:01. The test is described as above. The following applies: source organism: Reston ebolavirus - Reston.
For test [11], the target named is HLA-B*57:01. The description is as above. The following applies: source organism: Reston ebolavirus - Reston.
The target in the next test is HLA-A*24:03. The test is described as above. The following applies: source organism: Reston ebolavirus.
For the next test, the target named is HLA-A*23:01. Described as above. The following applies: source organism: Reston ebolavirus.
A further test concerns the target HLA-B*48:01. Described as above. To be noted: source organism: Reston ebolavirus - Reston.
The target of a further test is HLA-B*44:02. The test is described as above. To be noted: source organism: Reston ebolavirus - Reston.
Test [12] has as its target HLA-A*01:01. The description is as above. The following applies: source organism: Reston ebolavirus - Reston.
Test [13] addresses HLA-B*07:02. Described as above. The following applies: source organism: Reston ebolavirus - Reston.
In a further test the target is HLA-A*02:12. The description is as above. The following applies: source organism: Reston ebolavirus.
The target in test [14] is HLA-A*03:01. The test can be described thus: IEDB peptide-MHC binding, purified MHC/competitive/fluorescence; ≥ and ≤ were set here for values at or beyond the usual limits of such assays.
The target in a further test is HLA-A*11:01. Described as above.
Test [15] concerns the target HLA-B*51:01. Briefly: IEDB peptide-MHC binding, purified MHC/direct/fluorescence; filed as Kd, often an IC50 or EC50 that approximates it; ≥ and ≤ were set here for values at or beyond the usual limits of such assays.
Another test has as its target HLA-B*35:01. Briefly: IEDB peptide-MHC binding, purified MHC/competitive/radioactivity; filed as Kd, often an IC50 or EC50 that approximates it; ≥ and ≤ were set here for values at or beyond the usual limits of such assays. The following applies: source organism: Dengue virus 4 Philippines/H241/1956.
Another test deals with HLA-B*53:01. The description is as above. The following applies: source organism: Dengue virus 4 Philippines/H241/1956.
Test [16] has as its target HLA-A*01:01. Briefly: IEDB peptide-MHC binding, purified MHC/competitive/fluorescence; ≥ and ≤ were set here for values at or beyond the usual limits of such assays. The following applies: source organism: Sudan ebolavirus.
Where [17] appears, read: source organism: Zaire ebolavirus.
Setting [18] is: source organism: Vaccinia virus.
The mark [19] stands for this setting: source organism: Reston ebolavirus.
Where [20] appears, read: source organism: Reston ebolavirus - Reston.
The mark [21] stands for this setting: source organism: Sudan ebolavirus.

For FQRTFSIPL, the IC50 with HLA-A*02:01 [1] (setting [17]) was determined as 3.55 µM; with HLA-B*08:01 (setting [17]), 5.48 µM; in the test with HLA-B*15:01 [2] (setting [17]), 2.2 µM; in the test with HLA-B*07:02 [3], 3.92 µM; in the test with HLA-A*24:02 (setting [17]) it was 47 µM.
For GCLRIQSLM, the IC50 is 9.58 µM in the test with HLA-A*02:01 [1] (setting [18]), at least 697 µM with HLA-B*08:01 (setting [18]) and at least 591 µM in the test with HLA-B*15:01 [2] (setting [18]).
As to GQFLSFASL, the IC50 with HLA-A*02:01 [1] (setting [17]) was found to be 3.42 µM; with HLA-B*15:01 [2] (setting [17]), 1.27 µM; with HLA-A*24:02 (setting [17]), 19.5 µM. Moreover, the Kd with HLA-A*69:01 [4] is at least 20 µM; with HLA-B*57:01 [5], at least 20 µM; in the test with HLA-B*27:03 (setting [17]), at least 20 µM; with HLA-A*26:01 (setting [17]), at least 20 µM; with HLA-B*51:01 [6] (setting [17]), at least 20 µM; in the test with HLA-B*27:05 (setting [17]), 0.151 µM. Moreover, the Kd was at least 20 µM with HLA-B*58:01 (setting [17]); at least 20 µM with HLA-A*02:19; 0.032 µM with HLA-B*15:01 [7] (setting [17]); at least 20 µM in the test with HLA-A*03:01 [8] (setting [17]); at least 20 µM with HLA-A*29:02 (setting [17]); at least 20 µM in the test with HLA-A*68:02 (setting [17]).
With HKNKFMAIL, the IC50 with HLA-A*02:01 [1] (setting [17]) is at least 782 µM; with HLA-B*08:01 (setting [17]), 42.7 µM; in the test with HLA-B*15:01 [2] (setting [17]), at least 443 µM; in the test with HLA-A*24:02 (setting [17]) it was 50.9 µM.
Regarding KHDFIDNPL, the Kd with HLA-B*27:03 (setting [19]), with HLA-A*26:01 (setting [19]), with HLA-B*51:01 [6] (setting [19]), in the test with HLA-B*27:05 (setting [20]), with HLA-B*58:01 (setting [20]) and with HLA-A*02:01 [9] was at least 20 µM each time. Besides, the Kd with HLA-B*18:01 is at least 20 µM; in the test with HLA-B*46:01 it was at least 20 µM; with HLA-B*39:01, 4.89 µM; with HLA-B*15:01 [7] (setting [20]) it was at least 20 µM; with HLA-A*03:01 [8] (setting [20]), at least 20 µM; with HLA-A*02:11, at least 20 µM. For the same sequence, the Kd with HLA-A*31:01, in the test with HLA-A*69:01 [10], with HLA-B*40:01, with HLA-B*57:01 [11], with HLA-A*24:03 and with HLA-A*23:01 was at least 20 µM throughout. In addition, the equilibrium dissociation constant (Kd) with HLA-A*29:02 (setting [20]), in the test with HLA-B*48:01, with HLA-B*44:02, with HLA-A*68:02 (setting [19]), with HLA-A*01:01 [12] and with HLA-B*07:02 [13] was at least 20 µM throughout. The same sequence had a Kd with HLA-A*02:12 of at least 20 µM.
Take KLLLWFNYL: the concentration for half-maximal inhibition (IC50) in the test with HLA-A*03:01 [14] (source organism: Variola virus) was at least 699 µM; in the test with HLA-A*11:01 (source organism: Variola virus), at least 140 µM.
On to KPVPNRSTK, for which the IC50 is at least 166 µM with HLA-A*03:01 [14] (setting [17]), at least 115 µM in the test with HLA-A*11:01 (setting [17]) and 30.9 µM with HLA-B*07:02 [3].
Consider LFLESGAVK, for which the IC50 is at least 192 µM with HLA-A*03:01 [14] (setting [17]), 68.8 µM in the test with HLA-A*11:01 (setting [17]) and 15.2 µM with HLA-A*24:02 (setting [17]).
In the case of LIIDEVHEH, the IC50 is at least 99.4 µM with HLA-A*02:01 [1] (source organism: Variola virus), at least 128 µM with HLA-B*15:01 [2] (source organism: Variola virus) and 69.2 µM with HLA-A*11:01 (source organism: Variola virus).
With QQYAESREL, the IC50 with HLA-A*02:01 [1] (setting [17]) was 58.2 µM; with HLA-B*15:01 [2] (setting [17]) it was 15.7 µM; in the test with HLA-B*07:02 [3], at least 134 µM; with HLA-A*24:02 (setting [17]) it was at least 72.4 µM.
As for QVEQHHRRT, the IC50 was at least 252 µM with HLA-A*02:01 [1] (setting [17]), 3.08 µM with HLA-A*03:01 [14] (setting [17]) and 0.543 µM in the test with HLA-A*11:01 (setting [17]).
SMRDQRKGR returned an IC50 with HLA-A*03:01 [14] (source organism: Variola virus) of 6.32 µM. This counts as single-digit micromolar.
Turning to SPSKLASAI, in the test with HLA-B*51:01 [15] (source organism: Dengue virus), the Kd was at least 20 µM.
On to STHNTPVYK, for which the IC50 is at least 323 µM with HLA-A*02:01 [1] (setting [17]), 5.02 µM with HLA-A*03:01 [14] (setting [17]), 0.44 µM with HLA-A*11:01 (setting [17]) and at least 134 µM with HLA-A*24:02 (setting [17]).
For the sequence THKLSLTKL, the IC50 was at least 149 µM with HLA-A*03:01 [14] (source organism: Variola virus) and 46.2 µM with HLA-A*11:01 (source organism: Variola virus).
In the case of TPFGQQRVF, the equilibrium dissociation constant (Kd) in the test with HLA-B*35:01 is 0.0474 µM; with HLA-B*53:01, 0.264 µM; with HLA-B*51:01 [15] (source organism: Dengue virus 1 Singapore/S275/1990) it was at least 20 µM.
Regarding YYATSYLEY, the IC50 with HLA-B*15:01 [2] (setting [21]) is at least 244 µM; with HLA-A*01:01 [16] it was at least 110 µM; with HLA-A*24:02 (setting [21]) it was 0.676 µM.
